Experimental findings from paper PMC3742313 are described below.

The target in assay [1] is GM-CSF receptor on human CD34+ cord blood cells (human (endogenous in CD34+ cord blood cells)) (UniProt P32927). Description: radioligand binding.
Assay [2] addresses GM-CSF receptor on TF-1 cells (human (endogenous in TF-1)) (UniProt P32927). Briefly: radioligand binding.

As to “DPP4-truncated recombinant human [125I]-GM-CSF (ligand)”, the KD of the high-affinity site in assay [1] is 0.734 nM. In assay [2], “unlabeled DPP4-truncated recombinant human GM-CSF (ligand)” yielded a percent by which the IC50 is less than for full-length GM-CSF of 88%.
